This series concerns the molecule itself. Nature of the series: SEC; Superdex 75 (10/300), proteins at 1 mg/ml, 100 mM NaCl, 20 mM HEPES pH 7.5; apparent molecular weight against mass standards.

In general, stoichiometry N refers to a count of units in the complex or per binding partner.

B1: APL1B LRR domain (APL1B-LRR) (domain or fragment, Anopheles gambiae, UniProt A7URS4 21-370, looked up)
chain: GQLSYKSMHLTPFTLSALLASFHKVEVLNLNGLQIEEIDTNAFAYAHTIQKLYMRFNVIRYLPPHVFQNVPLLTVLMLDRNDLSSLPPGIFHNTPKLTMLSMSNNNLERIEDDTFQATTSLQNLQLSSNRLTHVDLALIPSLFHVNVSYNLLSTLAIPIAVEELDASHNSINVVRGPVNVELTILKLQHNNLTDTAWLLNYPGLTDVDLSYNQLEIITIHHFVTMQRLERLHVSNNRLVAFDLYGRPIPTLKVLDLSHNHLMWVEHNQAQFDKLQYLYLDHNSIVTLKLSTSHTIKNLTLSHNDWDCNSLRALFRNVARPVVDDADQYCKIDYHLEHGLCCKESDKPYLD
modifications: N-linked glycosylation (predicted at Asn166, Asn211, Asn317; N-acetylglucosamine resolved at Asn166)
notes: APL1B of Anopheles gambiae, allele from strain G3, LRR domain; cloned as residues 1-370 with its signal peptide; the crystallized protein comprises APL1B 21-370 and a C-terminal 6xHis tag; Model in PDB 4XGO holds residues 25-364 (chain A) and 27-364 (chain B); source: T. ni cells (baculovirus, Bac-to-Bac), purified (Talon, MonoS, SEC); not shown: 6xHis, C-terminal, kept
In the case of B1, the “stoichiometry N” value amounted to 2.

The values are drawn from PMC4361550, “Biophysical Analysis of Anopheles gambiae Leucine-Rich Repeat Proteins APL1A^1, APL1B and APL1C and Their Interaction with LRIM1” (PLoS ONE, 2015).
